Results: patent US20100144634A1 (published 2010)

Columns and labels:
[1] = target: von Willebrand factor (VWF), purified plasma-derived, multimeric, native (UniProt P04275)
[2] = target: von Willebrand factor (VWF), purified plasma-derived, multimeric, native (UniProt P04275); assay: cell-based or functional assay
[3] = target: von Willebrand factor (VWF), purified plasma-derived, multimeric, native (UniProt P04275); assay: microtiter binding assay, immobilised vWF
[4] = target: recombinant vWF expressed in BHK cells overexpressing PACE/furin (UniProt P04275); assay: cell-based or functional assay
[5] = target: von Willebrand factor (VWF), purified plasma-derived, multimeric, native (UniProt P04275); assay: microtiter plate binding (ELISA format, anti-V5 detection), VWF immobilised, static
[6] = target: von Willebrand factor pre-denatured with 1.5 M guanidine-HCl at 37 C for two hours (UniProt P04275); assay: SPR (BIAcore), guanidine-HCl denatured VWF injected over immobilised MDTCS, equilibrium fit
[7] = target: von Willebrand factor pre-denatured with 1.5 M guanidine-HCl at 37 C for two hours (UniProt P04275); assay: SPR (BIAcore), guanidine-HCl denatured VWF injected over immobilised delCUB, equilibrium fit
[8] = target: von Willebrand factor (VWF), purified plasma-derived, multimeric, native (UniProt P04275); assay: SPR (BIAcore), VWF injected under flow over immobilised delCUB, equilibrium fit, no EDTA
[9] = target: von Willebrand factor (VWF), purified plasma-derived, multimeric, native (UniProt P04275); assay: SPR (BIAcore) under laminar flow
[10] = target: von Willebrand factor (VWF), purified plasma-derived, multimeric, native (UniProt P04275); assay: SPR (BIAcore), VWF injected under flow over immobilised delCUB, equilibrium fit, in the presence of 10 mM EDTA
[11] = target: von Willebrand factor (VWF), purified plasma-derived, multimeric, native (UniProt P04275); assay: SPR (BIAcore), VWF injected under flow over immobilised T5-8CUB, equilibrium fit
[12] = target: von Willebrand factor (VWF), purified plasma-derived, multimeric, native (UniProt P04275); assay: SPR (BIAcore) under flow
[13] = target: von Willebrand factor (VWF), purified plasma-derived, multimeric, native (UniProt P04275); assay: SPR (BIAcore), VWF injected under flow over immobilised T2-8CUB, equilibrium fit

For “ADAMTS13 variant truncated after the spacer domain, C-terminal V5-His”, the “cleavage of VWF under vortex-induced mechanic shear stress” value [1] was “A removal of the CUB domains (delCUB) or more (MDTCS) abrogates its ability to cleave VWF”.

“isolated light chain of FVIII (from UniProt P00451 1668-2351)” gave a concentration of FVIII-LC achieving the half maximal rate enhancing effect (IC50) [2] of 2 nM, an increase of the maximal proteolytic cleavage product (˜350 kDa) with 5 nM FVIII-LC [2] of 7 to 8 fold and a Kd [3] of 17 nM.

In the case of “recombinant human full-length coagulation factor VIII (from UniProt P00451 20-1667; P00451 1668-2351)”, the half-maximal effect of FVIII on cleavage of rvWF by ADAMTS13 [4] is reported as 3 nM, the increase in product formation with rvWF as substrate in the presence of 20 nM FVIII [4] is reported as 10 fold and the Km of the enhancement of VWF cleavage by ADAMTS13 [2] is reported as 2 to 3 nM. The concentration of FVIII required for half maximal enhancement in product formation [2] was 3 nM, the enhancement of ADAMTS13 cleavage of plasma vWF (350K product) in the presence of 10-20 nM FVIII [2] was 10 to 12 fold and the half maximal effect of rFVIII on proteolytic cleavage of VWF by ADAMTS13 [2] was 2.9 nM.

“ADAMTS13 variant truncated after the spacer domain, C-terminal V5-His (from UniProt Q76LX8 75-685) (enzyme)” showed a Kd [5] of 56 nM and a Kd [6] of 337 nM.

Molecule “B-domainless derivative of human factor VIII, FVIII-SQ (from UniProt P00451 20-762; P00451 1657-1667; P00451 1668-2351)” has a half-maximal effect on vWF proteolysis by ADAMTS13 [2] of 2.5 nM and an increase in vWF proteolysis by ADAMTS13 under shear stress [2] of 10 fold.

Molecule “ADAMTS13 variant truncated after the 8th TSP-1 repeat (lacking the CUB domains), C-terminal V5-His (from UniProt Q76LX8 75-1191) (enzyme)” has a Kd [5] of 70 nM, a Kd [7] of 242 nM and a Kd [8] of 274 nM. It also gave a fold reduction in affinity against full-length ADAMTS13 [9] of 5 fold and a Kd [10] of 468 nM.

“ADAMTS13 TSP1 5-8 repeats plus CUB domains, N-terminal linker and Flag, C-terminal V5-His (from UniProt Q76LX8 884-1191; Q76LX8 1192-1427)” gave an inhibition of proteolytic cleavage of VWF by ADAMTS13 under vortex-induced shear stress, fragment at 150 nM [2] of 75% and a Kd [11] of 212 nM.

“ADAMTS13 variant truncated after the 8th TSP-1 repeat (lacking the CUB domains), C-terminal V5-His” was tested, and the “cleavage of VWF under vortex-induced mechanic shear stress” value [1] was “A removal of the CUB domains (delCUB) or more (MDTCS) abrogates its ability to cleave VWF”.

B1: ADAMTS13 TSP1 2-8 repeats plus CUB domains, N-terminal linker and Flag, C-terminal V5-His (protein, not shown: small tags and cut ends)
chain: AAQPARRARRTKLALDTKDDDDKHVWTPVAWVWAAVRGPCSVSCGAGLRWVNYSCLDQARKELVETVQCQGSQQPPAWPEACVLEPCPPYWAVGDFGPCSASCGGGLRERPVRCVEAQGSLLKTLPPARCRAGAQQPAVALETCNPQPCPARWEVSEPSSCTSAGGAGLALENETCVPGADGLEAPVTEGPGSVDEKLPAPEPCVGMSCPPGWGHLDATSAGEKAPSPWGSIRTGAQAAHVWTPAAGSCSVSCGRGLMELRFLCMDSALRVPVQEELCGLASKPGSRREVCQAVPCPARWQYKLAACSVSCGRGVVRRILYCARAHGEDDGEEILLDTQCQGLPRPEPQEACSLEPCPPRWKVMSLGPCSASCGLGTARRSVACVQLDQGQDVEVDEAACAALVRPEASVPCLIADCTYRWHVGTWMECSVSCGDGIQRRRDTCLGPQAQAPVPADFCQHLPKPVTVRGCWAGPCVGQGTPSLVPHEEAAAPGRTTATPAGASLEWSQARGLLFSPAPQPRRLLPGPQENSVQSSACGRQHLEPTGTIDMRGPGQADCAVAIGRPLGEVVTLRVLESSLNCSAGDMLLLWGRLTWRKMCRKLLDMTFSSKTNTLVVRQRCGRPGGGVLLRYGSQLAPETFYRECDMQLFGPWGEIVSPSLSPATSNAGGCRLFINVAPHARIAIHALATNMGAGTEGANASYILIRDTHSLRTTAFHGQQVLYWESESSQAEMEFSEGFLKAQASLRGQYWTLQSWVPEMQDPQSWKGKEGT
Molecule B1 has a fold increase in affinity against T5-8CUB [12] of 1.5 fold, an inhibition of proteolytic cleavage of VWF by ADAMTS13 under vortex-induced shear stress, fragment at 150 nM [2] of 100% and a Kd [13] of 140 nM.
